In data set [1] the target is carcinoembryonic antigen (CEA) (UniProt P06731 35-685). Kind of data set: electrochemical sensor (DPV/CV), aptamer release from graphene oxide; Ru(NH3)6 3+, GO; sensor LOD 14 fg/mL, linear 60 fg/mL-100 ng/mL (not Kd); PBS (sodium phosphate) 0.01 M, pH 7.4; GO 0.1 mg/mL, aptamer 1 uM, Ru(NH3)6 3+ 50 uM (optimum); temperature not stated. The note with it: protein: commercial.

The target in data set [2] is prostate specific antigen (PSA) (UniProt P07288 25-261). Nature of the data set: electrochemical sensor (DPV), aptamer release from graphene oxide; Ru(NH3)6 3+, GO; PBS (sodium phosphate) 0.01 M, pH 7.4; GO 0.1 mg/mL, aptamer 1 uM, Ru(NH3)6 3+ 50 uM (optimum); temperature not stated. Conditions: protein: commercial.
Sequence of prostate specific antigen (PSA) (P07288 25-261): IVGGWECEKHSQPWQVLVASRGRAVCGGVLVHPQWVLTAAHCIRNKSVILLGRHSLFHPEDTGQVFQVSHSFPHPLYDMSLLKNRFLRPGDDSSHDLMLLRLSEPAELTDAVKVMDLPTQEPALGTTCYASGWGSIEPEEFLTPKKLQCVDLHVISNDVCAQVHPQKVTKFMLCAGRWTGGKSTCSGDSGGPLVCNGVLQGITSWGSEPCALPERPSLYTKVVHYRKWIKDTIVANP
A further data set addresses T1, C-reactive protein (CRP) (UniProt P02741 19-224).
T1 sequence: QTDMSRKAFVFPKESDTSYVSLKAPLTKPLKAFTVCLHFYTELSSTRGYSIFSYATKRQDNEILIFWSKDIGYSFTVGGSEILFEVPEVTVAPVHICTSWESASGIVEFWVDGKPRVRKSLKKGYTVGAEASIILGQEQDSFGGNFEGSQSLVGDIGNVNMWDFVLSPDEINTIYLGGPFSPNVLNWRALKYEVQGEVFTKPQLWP
Described as above. The note with it: protein: commercial; chain copies: 5.

In a further data set the target is T2, alpha fetoprotein (AFP) (UniProt P02771 19-609).
T2 sequence: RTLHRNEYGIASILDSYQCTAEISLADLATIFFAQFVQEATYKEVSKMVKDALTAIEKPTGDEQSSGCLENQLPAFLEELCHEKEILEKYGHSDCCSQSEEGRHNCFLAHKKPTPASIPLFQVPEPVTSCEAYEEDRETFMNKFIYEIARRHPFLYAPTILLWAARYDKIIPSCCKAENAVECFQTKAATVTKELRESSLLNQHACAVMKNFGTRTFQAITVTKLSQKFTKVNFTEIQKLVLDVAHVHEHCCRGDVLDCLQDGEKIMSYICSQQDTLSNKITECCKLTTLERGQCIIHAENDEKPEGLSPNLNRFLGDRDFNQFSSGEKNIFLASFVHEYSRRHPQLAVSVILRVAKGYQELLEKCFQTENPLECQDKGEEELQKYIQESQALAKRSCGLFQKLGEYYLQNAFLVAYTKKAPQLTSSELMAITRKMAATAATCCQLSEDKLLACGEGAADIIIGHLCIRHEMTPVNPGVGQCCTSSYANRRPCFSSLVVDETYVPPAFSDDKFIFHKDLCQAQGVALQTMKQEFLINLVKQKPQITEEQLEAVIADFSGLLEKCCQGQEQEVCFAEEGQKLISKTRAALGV
Described as above. Conditions: protein: commercial.

Data set [3] concerns the target cancer antigen 153 (CA153) (UniProt P15941 24-1097). The description is as above. Conditions: protein: commercial.

Sequence of carcinoembryonic antigen (CEA) (P06731 35-685): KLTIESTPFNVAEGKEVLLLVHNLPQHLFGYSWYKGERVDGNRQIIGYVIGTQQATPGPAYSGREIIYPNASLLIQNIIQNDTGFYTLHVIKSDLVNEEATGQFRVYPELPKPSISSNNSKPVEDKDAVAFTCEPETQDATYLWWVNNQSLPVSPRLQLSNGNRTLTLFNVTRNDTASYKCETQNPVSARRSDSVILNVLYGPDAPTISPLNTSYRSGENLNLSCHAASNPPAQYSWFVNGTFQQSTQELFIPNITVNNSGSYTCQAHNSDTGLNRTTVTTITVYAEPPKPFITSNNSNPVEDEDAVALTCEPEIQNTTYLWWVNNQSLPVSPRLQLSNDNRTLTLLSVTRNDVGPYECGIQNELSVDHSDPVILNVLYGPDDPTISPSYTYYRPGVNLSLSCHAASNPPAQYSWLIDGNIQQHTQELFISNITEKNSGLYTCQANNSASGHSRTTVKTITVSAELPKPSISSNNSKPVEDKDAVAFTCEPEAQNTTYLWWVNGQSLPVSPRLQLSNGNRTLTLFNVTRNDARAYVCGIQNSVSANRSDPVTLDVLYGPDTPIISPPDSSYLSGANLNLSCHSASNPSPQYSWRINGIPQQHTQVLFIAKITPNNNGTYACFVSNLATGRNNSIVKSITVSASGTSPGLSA
Sequence of cancer antigen 153 (CA153) (P15941 24-1097): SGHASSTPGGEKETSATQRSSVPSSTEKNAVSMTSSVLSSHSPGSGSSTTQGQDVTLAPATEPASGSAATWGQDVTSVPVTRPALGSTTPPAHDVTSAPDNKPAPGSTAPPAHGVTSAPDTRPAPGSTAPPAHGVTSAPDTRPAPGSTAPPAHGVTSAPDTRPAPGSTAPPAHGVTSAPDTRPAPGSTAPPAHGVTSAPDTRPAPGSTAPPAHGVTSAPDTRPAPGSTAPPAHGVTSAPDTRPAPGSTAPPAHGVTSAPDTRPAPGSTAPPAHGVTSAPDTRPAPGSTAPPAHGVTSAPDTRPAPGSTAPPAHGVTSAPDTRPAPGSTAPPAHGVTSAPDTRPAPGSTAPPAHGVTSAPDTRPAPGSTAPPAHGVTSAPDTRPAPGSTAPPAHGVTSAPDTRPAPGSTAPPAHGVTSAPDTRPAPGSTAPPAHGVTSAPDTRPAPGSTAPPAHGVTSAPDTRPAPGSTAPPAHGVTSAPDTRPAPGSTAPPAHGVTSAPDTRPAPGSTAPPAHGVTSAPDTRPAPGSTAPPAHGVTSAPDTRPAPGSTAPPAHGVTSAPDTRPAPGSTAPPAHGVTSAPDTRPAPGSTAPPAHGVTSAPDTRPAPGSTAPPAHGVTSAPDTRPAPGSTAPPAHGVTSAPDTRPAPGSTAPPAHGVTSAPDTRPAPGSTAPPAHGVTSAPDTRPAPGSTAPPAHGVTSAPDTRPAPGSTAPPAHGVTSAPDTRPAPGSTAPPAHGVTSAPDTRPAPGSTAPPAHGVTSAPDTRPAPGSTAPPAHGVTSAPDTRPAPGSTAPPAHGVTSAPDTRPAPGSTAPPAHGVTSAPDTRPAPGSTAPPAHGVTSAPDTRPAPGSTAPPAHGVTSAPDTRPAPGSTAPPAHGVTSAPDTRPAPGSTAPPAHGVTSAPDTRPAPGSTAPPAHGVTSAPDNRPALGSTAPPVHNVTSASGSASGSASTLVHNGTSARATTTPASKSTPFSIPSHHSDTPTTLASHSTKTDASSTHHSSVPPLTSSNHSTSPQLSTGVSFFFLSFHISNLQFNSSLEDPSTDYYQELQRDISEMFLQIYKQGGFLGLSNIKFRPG

For ATACAGCTTCAATT (ssDNA, 3'-NH2) [CEA aptamer (Apt)], the binding result in data set [1] was “binds”; in data set [2], “no binding”; in the data set with C-reactive protein (CRP), “no binding”; with alpha fetoprotein (AFP), “no binding”; in data set [3], “no binding”.

The record behind these values is PMC10343182, “Homogeneous Electrochemical Aptamer Sensor Based on Two-Dimensional Nanocomposite Probe and Nanochannel Modified Electrode for Sensitive Detection of Carcinoembryonic Antigen”.
